Experimental findings from publication PMC12145851 are described below.

Assay [1] concerns the target phospholamban (PLN) (mouse (endogenous in mouse heart)) (UniProt P61014). As to the kind of experiment: co-IP; PLN antibody immunoprecipitation from unfixed mouse cardiac tissue lysate (IP group), immunoblot of co-precipitated proteins.
The target is the same in assay [2]. The assay can be described thus: co-IP; PLN antibody immunoprecipitation from 3 % glyoxal-fixed (cross-linked) mouse cardiac tissue lysate (xIP group), immunoblot of co-precipitated proteins. Background: In western blotting, separated proteins are transferred to a membrane and probed.

Chain of UniProt P61014 (P61014 whole entry): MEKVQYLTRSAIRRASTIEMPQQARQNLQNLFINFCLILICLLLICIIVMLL

For the substance “integrin beta-1 (ITGB1) (from UniProt P09055 21-798) (natural protein)”, the signal of co-precipitated protein (relative, %) in assay [1] worked out at 100%; in assay [2] it was 282%.
